# Entries after “also recorded” stand apart in the source; their conditions may differ.
# T1: CCL8_HUMAN (Homo sapiens, UniProt P80075)
# T1 sequence (P80075 24-99): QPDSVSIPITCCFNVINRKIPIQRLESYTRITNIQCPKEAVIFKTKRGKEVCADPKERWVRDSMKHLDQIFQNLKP
# T2: CCL5_HUMAN (Homo sapiens, UniProt P13501)
# T2 sequence (P13501 24-91): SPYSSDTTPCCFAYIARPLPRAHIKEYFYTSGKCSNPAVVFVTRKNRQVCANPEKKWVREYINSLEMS
# T3: CCL3_HUMAN (Homo sapiens, UniProt P10147)
# T3 sequence (P10147 24-92): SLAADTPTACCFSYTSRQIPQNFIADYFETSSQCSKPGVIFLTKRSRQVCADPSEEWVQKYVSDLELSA
# T4: CCL4L1_HUMAN (Homo sapiens, UniProt Q8NHW4)
# T4 sequence (Q8NHW4 24-92): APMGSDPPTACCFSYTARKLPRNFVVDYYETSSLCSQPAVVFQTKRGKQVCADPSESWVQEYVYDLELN
# T5: CCL17_HUMAN (Homo sapiens, UniProt Q92583)
# T5 sequence (Q92583 24-94): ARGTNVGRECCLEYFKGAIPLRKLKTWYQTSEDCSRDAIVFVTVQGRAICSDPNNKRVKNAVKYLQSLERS
# T6: CCL4_HUMAN (Homo sapiens, UniProt P13236)
# T6 sequence (P13236 24-92): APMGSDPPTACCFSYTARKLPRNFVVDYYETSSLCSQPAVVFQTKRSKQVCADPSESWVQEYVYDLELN
# T7: CCL14_HUMAN (Homo sapiens, UniProt Q16627)
# T7 sequence (Q16627 20-93): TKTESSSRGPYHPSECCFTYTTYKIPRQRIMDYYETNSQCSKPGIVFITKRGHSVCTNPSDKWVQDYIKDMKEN
# T8: CCL22_HUMAN (Homo sapiens, UniProt O00626)
# T8 sequence (O00626 25-93): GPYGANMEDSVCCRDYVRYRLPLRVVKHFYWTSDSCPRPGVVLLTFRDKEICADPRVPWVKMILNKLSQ
# T9: CCL18_HUMAN (Homo sapiens, UniProt P55774)
# T9 sequence (P55774 21-89): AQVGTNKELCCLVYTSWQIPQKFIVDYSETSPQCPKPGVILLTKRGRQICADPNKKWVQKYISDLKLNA
# T10: CCL1_HUMAN (Homo sapiens, UniProt P22362)
# T10 sequence (P22362 24-96): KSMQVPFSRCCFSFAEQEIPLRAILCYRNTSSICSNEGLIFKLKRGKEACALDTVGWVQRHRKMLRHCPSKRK
# T11: CCL25_HUMAN (Homo sapiens, UniProt O15444)
# T11 sequence (O15444 24-150): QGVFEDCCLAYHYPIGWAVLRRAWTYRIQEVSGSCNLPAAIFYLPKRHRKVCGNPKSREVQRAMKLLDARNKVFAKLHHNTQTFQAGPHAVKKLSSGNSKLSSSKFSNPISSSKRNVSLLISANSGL
# B1: P698_RHISA: tick CKBP, Rhipicephalus sanguineus (protein, listed as Rhipicephalus sanguineus)
# chain: NEDDSSDYYDASPMNCSSMSVNSTMGWLSMNCTMSCNGTTFPLSNSTHCFHSYTNLTVQSRMETMTYNCSVGTCSNGTCVENGTTTTCW
# B2: P974_AMBCA: tick CKBP, Amblyomma cajennense; ACA-01 stated identical (protein)
# chain: ENTQQEEQDYDYGTDTCPFPVLANKTNKAKFVGCHQKCNGGDQKLTDGTACYVVERKVWDRMTPMLWYECPLGECKNGVCEDLRKKEDCRKGNGEEK
# modifications: Amblyomma cajennense
# notes: tick CKBP, Amblyomma cajennense; ACA-01 stated identical
# B3: P546_AMBCA: tick CKBP, Amblyomma cajennense (protein)
# chain: ENTQQEEEDYDYGTDTCPFPVLANKTNKAKFVGCHQKCNGGDQKLTDGTACYVVERKVWDRMTPMLWYSCPLGECKNGVCEDLRKKEECRKGNGEEK
# modifications: Amblyomma cajennense
# B4: P1011_AMBTR: tick CKBP, Amblyomma triste (protein)
# chain: EKDTPKNIPGCEDAGTTAAPPADNPKHYAVYTDKNGCTFKVIGTWMTKEDHRRLPVSLRRVRASSGRVKLPASCQKICKHSVKKFPEGTPCRLVTRDPIKGKNHIKNGCIRGYCSSGVCVSDNRSISCYVLPNNTELTSPSGSFAE
# modifications: Amblyomma triste
# Columns and labels:
# CCL8_HUMAN [1] = target: T1, CCL8_HUMAN; test: Yeast surface display (YSD) FACS binding
# Method in brief: (§1)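 Yeast clones displaying tick peptides were re-tested by FACS with labelled chemokine. Binding = % of peptide-expressing yeast above a background threshold set with streptavidin-Alexa647 alone; the mean percent shift was used where several clones were isolated. Confirmed binding ("YES") required >3-fold over background mean fluorescence intensity.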
# CCL5_HUMAN [2] = target: T2, CCL5_HUMAN; test: Yeast surface display (YSD) FACS binding
# Method in brief: as §1
# chemokines = settings: list of chemokines bound, from the literature [18,20-22]; cited from earlier work
# CCL3_HUMAN = target: T3, CCL3_HUMAN; test: Biolayer interferometry (BLI) binding
# Method in brief: (§2)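 Binding was measured by biolayer interferometry with the His-tagged tick protein bound to Ni-NTA sensors. A single-concentration screen used chemokine at 300 nM. Chemokines that bound were retested over multiple doses, and Kd was calculated from fitted curves.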
# CCL4L1_HUMAN = target: T4, CCL4L1_HUMAN; test: Biolayer interferometry (BLI) binding
# Method in brief: as §2
# CCL2_HUMAN = CCL2_HUMAN (Homo sapiens, UniProt P13500); test: Biolayer interferometry (BLI) binding
# Chain of CCL2_HUMAN (P13500 24-99): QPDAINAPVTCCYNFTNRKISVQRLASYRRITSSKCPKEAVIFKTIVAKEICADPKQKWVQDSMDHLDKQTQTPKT
# Method in brief: as §2
# CCL8_HUMAN [3] = target: T1, CCL8_HUMAN; test: Biolayer interferometry (BLI) binding; settings: read-out: Kd, CCL8_HUMAN
# Method in brief: as §2
# CCL11_HUMAN [4] = target: T12, CCL11_HUMAN (Homo sapiens, UniProt P51671); test: Biolayer interferometry (BLI) binding
# T12 sequence (P51671 24-97): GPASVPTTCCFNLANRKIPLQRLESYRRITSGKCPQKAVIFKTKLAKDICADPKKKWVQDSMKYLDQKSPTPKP
# Method in brief: as §2
# CCL17_HUMAN [5] = target: T5, CCL17_HUMAN; test: Biolayer interferometry (BLI) binding
# Method in brief: as §2
# CCL4_HUMAN = target: T6, CCL4_HUMAN; test: Biolayer interferometry (BLI) binding
# Method in brief: as §2
# CCL3L1_HUMAN = CCL3L1_HUMAN (Homo sapiens, UniProt P16619); test: Biolayer interferometry (BLI) binding
# Chain of CCL3L1_HUMAN (P16619 24-93): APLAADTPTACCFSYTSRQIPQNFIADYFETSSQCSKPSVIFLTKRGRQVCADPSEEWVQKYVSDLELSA
# Method in brief: as §2
# CCL5_HUMAN [6] = target: T2, CCL5_HUMAN; test: Biolayer interferometry (BLI) binding
# Method in brief: as §2
# CCL13_HUMAN = CCL13_HUMAN (Homo sapiens, UniProt Q99616); test: Biolayer interferometry (BLI) binding
# Chain of CCL13_HUMAN (Q99616 17-98): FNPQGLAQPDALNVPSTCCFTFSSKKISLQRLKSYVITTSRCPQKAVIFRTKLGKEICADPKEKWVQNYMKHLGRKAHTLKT
# Method in brief: as §2
# CCL7_HUMAN = CCL7_HUMAN (Homo sapiens, UniProt P80098); test: Biolayer interferometry (BLI) binding
# Chain of CCL7_HUMAN (P80098 24-99): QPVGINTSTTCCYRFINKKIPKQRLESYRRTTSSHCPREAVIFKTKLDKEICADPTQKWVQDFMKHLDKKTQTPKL
# Method in brief: as §2
# CCL14_HUMAN = target: T7, CCL14_HUMAN; test: Biolayer interferometry (BLI) binding
# Method in brief: as §2
# CCL22_HUMAN = target: T8, CCL22_HUMAN; test: Biolayer interferometry (BLI) binding
# Method in brief: as §2
# CCL18_HUMAN [7] = target: T9, CCL18_HUMAN; test: Biolayer interferometry (BLI) binding
# Method in brief: as §2
# CCL1_HUMAN = target: T10, CCL1_HUMAN; test: Biolayer interferometry (BLI) binding
# Method in brief: as §2
# CCL25_HUMAN = target: T11, CCL25_HUMAN; test: Yeast surface display (YSD) FACS binding
# Method in brief: as §1
# CCL11_HUMAN [8] = target: T12, CCL11_HUMAN; test: Yeast surface display (YSD) FACS binding
# Method in brief: as §1
# CCL17_HUMAN [9] = target: T5, CCL17_HUMAN; test: Yeast surface display (YSD) FACS binding
# Method in brief: as §1
# CCL18_HUMAN [10] = target: T9, CCL18_HUMAN; test: Yeast surface display (YSD) FACS binding
# Method in brief: as §1
Molecule,"Binding to CCL5_HUMAN, YSD (CCL5_HUMAN [2])",Kd (CCL3_HUMAN) [nM],Kd (CCL4L1_HUMAN) [nM],Kd (CCL2_HUMAN) [nM],Kd (CCL8_HUMAN [3]) [nM],Kd (CCL11_HUMAN [4]) [nM],Kd (CCL17_HUMAN [5]) [nM],Kd (CCL4_HUMAN) [nM],Kd (CCL3L1_HUMAN) [nM],Kd (CCL13_HUMAN) [nM],Kd (CCL7_HUMAN) [nM],Kd (CCL14_HUMAN) [nM],Kd (CCL22_HUMAN) [nM],Kd (CCL18_HUMAN [7]) [nM],Kd (CCL1_HUMAN) [nM],other results
B1,YES (An arbitrary threshold of >3 fold over background mean fluorescence intensity was chosen to describe confirmed re-tests. Where binding was detected data are indicated as “YES”),–,–,–,–,–,–,–,–,–,–,–,–,–,–,"Binding to CCL8_HUMAN, YSD (CCL8_HUMAN [1]): YES (An arbitrary threshold of >3 fold over background mean fluorescence intensity was chosen to describe confirmed re-tests. Where binding was detected data are indicated as “YES”)"
B2,–,7.97,23.2,93,2.58,17,70.6,30.2,13.1,22.9,41.2,49.1,16.5,17,70.5,"Previously described chemokine binding (chemokines): CCL11, CCL24,; also recorded: CCL26, CCL2,; also recorded: CCL8, CCL7; Kd (CCL5_HUMAN [6]): 160 nM"
B3,–,15,8.9,83,1.3,8.7,70,27,15,13,90,28,27,16,160,–
B4,YES (An arbitrary threshold of >3 fold over background mean fluorescence intensity was chosen to describe confirmed re-tests. Where binding was detected data are indicated as “YES”),–,–,–,–,–,–,–,–,–,–,–,–,–,–,"Binding to CCL25_HUMAN, YSD (CCL25_HUMAN): YES (An arbitrary threshold of >3 fold over background mean fluorescence intensity was chosen to describe confirmed re-tests. Where binding was detected data are indicated as “YES”); Binding to CCL11_HUMAN, YSD (CCL11_HUMAN [8]): YES (An arbitrary threshold of >3 fold over background mean fluorescence intensity was chosen to describe confirmed re-tests. Where binding was detected data are indicated as “YES”); Binding to CCL17_HUMAN, YSD (CCL17_HUMAN [9]): YES (An arbitrary threshold of >3 fold over background mean fluorescence intensity was chosen to describe confirmed re-tests. Where binding was detected data are indicated as “YES”); Binding to CCL18_HUMAN, YSD (CCL18_HUMAN [10]): YES (An arbitrary threshold of >3 fold over background mean fluorescence intensity was chosen to describe confirmed re-tests. Where binding was detected data are indicated as “YES”)"
